B1: GST-N (CLK1 residues 1-160) (domain or fragment, mouse, UniProt P22518 1-160, looked up)
chain: MRHSKRTYCPDWDERDWDYGTWRSSSSHKRKKRSHSSAREQKRCRYDHSKTTDSYYLESRSINEKAYHSRRYVDEYRNDYMGYEPGHPYGEPGSRYQMHSSKSSGRSGRSSYKSKHRSRHHTSQHHSHGKSHRRKRSRSVEDDEEGHLICQSGDVLSARY
B2: His-N (CLK1 residues 1-160) (domain or fragment, mouse, UniProt P22518 1-160, looked up)
chain: MRHSKRTYCPDWDERDWDYGTWRSSSSHKRKKRSHSSAREQKRCRYDHSKTTDSYYLESRSINEKAYHSRRYVDEYRNDYMGYEPGHPYGEPGSRYQMHSSKSSGRSGRSSYKSKHRSRHHTSQHHSHGKSHRRKRSRSVEDDEEGHLICQSGDVLSARY

Experiments:
[1] = molecular target: His-CLK1 (Cdc2-like kinase 1, mouse) (mouse, UniProt P22518 1-483); assay: pull-down
GST-SRSF1 = GST-SRSF1 (human, UniProt Q07955 1-248); assay: pull-down
Sequence of GST-SRSF1 (Q07955 whole entry): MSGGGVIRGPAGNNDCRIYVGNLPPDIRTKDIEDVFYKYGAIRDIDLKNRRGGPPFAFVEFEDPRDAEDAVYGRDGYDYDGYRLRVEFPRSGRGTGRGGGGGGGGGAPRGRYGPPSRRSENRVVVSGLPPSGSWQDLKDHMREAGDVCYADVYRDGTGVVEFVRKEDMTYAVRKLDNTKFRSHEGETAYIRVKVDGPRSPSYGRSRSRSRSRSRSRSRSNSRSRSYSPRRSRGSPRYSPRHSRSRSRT

Row | Binder | binding result [1] | binding result (GST-SRSF1)
1 | B1 | binds | –
2 | B2 | – | binds

From PMC5056641 (The Biochemical journal, 2014)
